In paper PMC7233526 (Biochemistry, 2020):

T1: full-length rat Adrenodoxin (Adx), wild type (rat, UniProt P24483 65-188)
T1 sequence (looked up): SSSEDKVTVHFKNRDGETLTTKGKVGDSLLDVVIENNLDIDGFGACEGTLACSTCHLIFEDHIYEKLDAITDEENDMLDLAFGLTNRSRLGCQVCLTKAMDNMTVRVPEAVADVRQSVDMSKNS

B1: rat CYP24A1 (cytochrome P450 24A1), S57D, without the 32 residue leader sequence (enzyme, UniProt Q09128 33-514, looked up)
chain: SASRAPKEVPLCPLMTDGETRNVTDLPGPTNWPLLGSLLEIFWKGGLKKQHDTLAEYHKKYGQIFRMKLGSFDSVHLGSPSLLEALYRTESAHPQRLEIKPWKAYRDHRNEAYGLMILEGQEWQRVRSAFQKKLMKPVEIMKLDKKINEVLADFLERMDELCDERGRIPDLYSELNKWSFESICLVLYEKRFGLLQKETEEEALTFITAIKTMMSTFGKMMVTPVELHKRLNTKVWQAHTLAWDTIFKSVKPCIDNRLQRYSQQPGADFLCDIYQQDHLSKKELYAAVTELQLAAVETTANSLMWILYNLSRNPQAQRRLLQEVQSVLPDNQTPRAEDLRNMPYLKACLKESMRLTPSVPFTTRTLDKPTVLGEYALPKGTVLTLNTQVLGSSEDNFEDSHKFRPERWLQKEKKINPFAHLPFGIGKRMCIGRRLAELQLHLALCWIIQKYDIVATDNEPVEMLHLGILVPSRELPIAFRPR

Experiments:
[1] = molecular target: B1; assay: NMR titration
[2] = molecular target: T1, full-length rat Adrenodoxin (Adx), wild …; assay: cross-linking

binding result [1]	stoichiometry N [2]	Binder
binds		rat Adrenodoxin L80Q (natural protein, UniProt P24483 65-188, looked up) SSSEDKVTVHFKNRDGETLTTKGKVGDSLLDVVIENNLDIDGFGACEGTLACSTCHLIFEDHIYEKLDAITDEENDMLDQAFGLTNRSRLGCQVCLTKAMDNMTVRVPEAVADVRQSVDMSKNS
	1	B1
